# In article PMC11814294 (2025):
# B1: His-CHE (natural protein)
# chain: not shown
# Molecular target: GST-His-ZTL (Arabidopsis thaliana, UniProt Q94BT6 1-609, RED-NHS 2nd Generation fluorescent label (in the MST assay only))
# Assay: MST
# Chain of GST-His-ZTL (Q94BT6 whole entry): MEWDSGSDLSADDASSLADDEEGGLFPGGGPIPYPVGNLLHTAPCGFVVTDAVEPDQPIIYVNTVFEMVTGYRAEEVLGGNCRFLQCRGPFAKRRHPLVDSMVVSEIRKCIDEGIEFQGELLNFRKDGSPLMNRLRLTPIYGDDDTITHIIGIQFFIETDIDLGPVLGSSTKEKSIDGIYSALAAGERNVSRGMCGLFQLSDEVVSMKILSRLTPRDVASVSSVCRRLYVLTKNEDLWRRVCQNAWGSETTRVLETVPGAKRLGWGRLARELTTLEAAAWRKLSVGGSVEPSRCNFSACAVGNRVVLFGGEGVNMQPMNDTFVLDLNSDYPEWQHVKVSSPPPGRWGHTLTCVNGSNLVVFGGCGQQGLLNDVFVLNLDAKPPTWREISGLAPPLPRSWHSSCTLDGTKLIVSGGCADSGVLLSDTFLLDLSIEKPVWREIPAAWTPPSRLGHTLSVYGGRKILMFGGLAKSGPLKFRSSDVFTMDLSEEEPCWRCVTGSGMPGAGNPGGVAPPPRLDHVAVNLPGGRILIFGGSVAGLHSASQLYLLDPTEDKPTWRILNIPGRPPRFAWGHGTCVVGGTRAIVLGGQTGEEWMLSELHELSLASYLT
binder,measurement,value
B1,Kd,190 nM
